The assay deals with USP-AE, segment from A region to E region of Ultraspiracle (USP) of Spodoptera litura, N-terminal His tag, expressed in Escherichia coli (Spodoptera litura). Put plainly: cell-based or functional assay.

Turning to “EcR-DF, segment from D region to F region of the molting hormone receptor (EcR) of Spodoptera litura, N-terminal His tag, expressed in Escherichia coli and refolded by gel filtration”, the molar ratio of EcR-DF to USP-AE at which ponasterone A binding saturates (USP-AE titrated onto a fixed amount of EcR-DF) (molar ratio EcR-DF:USP-AE (1:1)) was found to be 1.
